Reference: IntAct's records for PubMed 17098193

B1: Splicing factor 3A subunit 1 (Homo sapiens), Q15459 (parent)
chain: MPAGPVQAVPPPPPVPTEPKQPTEEEASSKEDSAPSKPVVGIIYPPPEVRNIVDKTASFVARNGPEFEARIRQNEINNPKFNFLNPNDPYHAYYRHKVSEFKEGKAQEPSAAIPKVMQQQQQTTQQQLPQKVQAQVIQETIVPKEPPPEFEFIADPPSISAFDLDVVKLTAQFVARNGRQFLTQLMQKEQRNYQFDFLRPQHSLFNYFTKLVEQYTKILIPPKGLFSKLKKEAENPREVLDQVCYRVEWAKFQERERKKEEEEKEKERVAYAQIDWHDFVVVETVDFQPNEQGNFPPPTTPEELGARILIQERYEKFGESEEVEMEVESDEEDDKQEKAEEPPSQLDQDTQVQDMDEGSDDEEEGQKVPPPPETPMPPPLPPTPDQVIVRKDYDPKASKPLPPAPAPDEYLVSPITGEKIPASKMQEHMRIGLLDPRWLEQRDRSIREKQSDDEVYAPGLDIESSLKQLAERRTDIFGVEETAIGKKIGEEEIQKPEEKVTWDGHSGSMARTQQAAQANITLQEQIEAIHKAKGLVPEDDTKEKIGPSKPNEIPQQPPPPSSATNIPSSAPPITSVPRPPTMPPPVRTTVVSAVPVMPRPPMASVVRLPPGSVIAPMPPIIHAPRINVVPMPPSAPPIMAPRPPPMIVPTAFVPAPPVAPVPAPAPMPPVHPPPPMEDEPTSKKLKTEDSLMPEEEFLRRNKGPVSIKVQVPNMQDKTEWKLNGQVLVFTLPLTDQVSVIKVKIHEATGMPAGKQKLQYEGIFIKDSNSLAYYNMANGAVIHLALKERGGRKK
partner: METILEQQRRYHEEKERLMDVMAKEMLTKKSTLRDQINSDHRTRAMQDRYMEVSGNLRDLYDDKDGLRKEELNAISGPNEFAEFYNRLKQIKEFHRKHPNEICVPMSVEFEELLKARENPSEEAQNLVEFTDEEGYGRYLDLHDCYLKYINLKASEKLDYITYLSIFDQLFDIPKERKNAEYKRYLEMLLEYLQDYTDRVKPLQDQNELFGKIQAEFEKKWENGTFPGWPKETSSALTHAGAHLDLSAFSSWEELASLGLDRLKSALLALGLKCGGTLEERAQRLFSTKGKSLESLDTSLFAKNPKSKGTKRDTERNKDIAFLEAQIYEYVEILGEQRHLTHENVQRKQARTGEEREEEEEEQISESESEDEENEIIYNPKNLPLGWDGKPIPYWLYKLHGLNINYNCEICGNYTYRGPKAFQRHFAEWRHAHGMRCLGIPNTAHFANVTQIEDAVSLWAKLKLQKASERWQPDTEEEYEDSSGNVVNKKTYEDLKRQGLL

Variants of: B1
Conditions: with sf3a3_human SF3A3, Q12874

effect of a mutation on the interaction | Variant
increasing interaction | K55L

Variants of: B1
Conditions: with sf3a3_human SF3A3, Q12874
Remark: another data set of the same source

effect of a mutation on the interaction | Variant
disrupting interaction | L169K
